B1: Pre-B-cell leukemia transcription factor-interacting protein 1 (Homo sapiens), Q96AQ6 (parent)
chain: MASCPDSDNSWVLAGSESLPVETLGPASRMDPESERALQAPHSPSKTDGKELAGTMDGEGTLFQTESPQSGSILTEETEVKGTLEGDVCGVEPPGPGDTVVQGDLQETTVVTGLGPDTQDLEGQSPPQSLPSTPKAAWIREEGRCSSSDDDTDVDMEGLRRRRGREAGPPQPMVPLAVENQAGGEGAGGELGISLNMCLLGALVLLGLGVLLFSGGLSESETGPMEEVERQVLPDPEVLEAVGDRQDGLREQLQAPVPPDSVPSLQNMGLLLDKLAKENQDIRLLQAQLQAQKEELQSLMHQPKGLEEENAQLRGALQQGEAFQRALESELQQLRARLQGLEADCVRGPDGVCLSGGRGPQGDKAIREQGPREQEPELSFLKQKEQLEAEAQALRQELERQRRLLGSVQQDLERSLQDASRGDPAHAGLAELGHRLAQKLQGLENWGQDPGVSANASKAWHQKSHFQNSREWSGKEKWWDGQRDRKAEHWKHKKEESGRERKKNWGGQEDREPAGRWKEGRPRVEESGSKKEGKRQGPKEPPRKSGSFHSSGEKQKQPRWREGTKDSHDPLPSWAELLRPKYRAPQGCSGVDECARQEGLTFFGTELAPVRQQELASLLRTYLARLPWAGQLTKELPLSPAFFGEDGIFRHDRLRFRDFVDALEDSLEEVAVQQTGDDDEVDDFEDFIFSHFFGDKALKKRSGKKDKHSQSPRAAGPREGHSHSHHHHHRG
B2: Septin-12 (Homo sapiens), Q8IYM1 (parent)
chain: MDPLRRSPSPCLSSQPSSPSTPPCEMLGPVGIEAVLDQLKIKAMKMGFEFNIMVVGQSGLGKSTMVNTLFKSKVWKSNPPGLGVPTPQTLQLHSLTHVIEEKGVKLKLTVTDTPGFGDQINNDNCWDPILGYINEQYEQYLQEEILITRQRHIPDTRVHCCVYFVPPTGHCLRPLDIEFLQRLCRTVNVVPVIARADSLTMEEREAFRRRIQQNLRTHCIDVYPQMCFDEDINDKILNSKLRDRIPFAVVGADQEHLVNGRCVLGRKTKWGIIEVENMAHCEFPLLRDLLIRSHLQDLKDITHNIHYENYRVIRLNESHLLPRGPGWVNLAPASPGQLTTPRTFKVCRGAHDDSDDEF
partner: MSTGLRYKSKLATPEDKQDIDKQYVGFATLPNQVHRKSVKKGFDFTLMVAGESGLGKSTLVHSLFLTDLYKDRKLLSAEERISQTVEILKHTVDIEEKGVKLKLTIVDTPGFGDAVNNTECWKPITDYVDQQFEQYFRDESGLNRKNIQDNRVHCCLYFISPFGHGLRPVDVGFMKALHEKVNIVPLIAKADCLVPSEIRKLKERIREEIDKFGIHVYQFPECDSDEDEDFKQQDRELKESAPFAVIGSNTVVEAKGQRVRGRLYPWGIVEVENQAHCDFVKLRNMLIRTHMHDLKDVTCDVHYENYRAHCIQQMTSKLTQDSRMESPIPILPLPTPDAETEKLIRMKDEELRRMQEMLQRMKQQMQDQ

Variants of: B1
Settings: with sgta_human SGTA

Variant	effect of a mutation on the interaction
R499Q	with no effect

Variants of: B1
Settings: with mdfi_human MDFI

Variant	effect of a mutation on the interaction
G357D	with no effect

Variants of: B2
Settings: with sept5_human SEPTIN5, Q99719

Variant	effect of a mutation on the interaction
T111K	disrupting interaction strength
G169E	disrupting interaction strength
C184S	with no effect
V162M	disrupting interaction strength
K73N	with no effect
D197N	disrupting interaction strength
R204Q	disrupting interaction strength
Q213R	disrupting interaction strength
V263D	disrupting interaction strength
R311C	with no effect

Source: IntAct's records for PubMed 31515488
